Laboratory results published in a protein production outcome set (Wang et al. 2014).

Test: label from the status in PepcDB records

| Sequence | protein production |
| --- | --- |
| MPQRNDRSRSTPTTSPKNNSWFRMQAGHQSDADIYIYDEIGFWGVTAKQFISDLNALGDITHINLNINSPGGDVFEGIAIFNALKTHGASITVYVDGVAASMASVIAMVGKPVIMPENSFMMIHKPFGFTGGDAEDMRTYADLLDKVEAVLLPAYAQKTGKTTDEIAAMLADETWMSGAECLAHGFADQVTPAVKAMACIQSKRTEEFKKMPESIRNMITPPRNSAPRVQDDGPAASRTPVQAAAPVVDENSIRAQVLAEQKARVNGINDLFAMFGGRYQTLQAQCLADPECSLEQAREKLLNEMGRESTPSNKNTPXHIYAGNGNFVGDGIRQALMARAGFEKTERDNVYNGMTLREYARMSLTERGIGVSSYNPMQMVGAAFTHSTSDFGNILLDVANKAILQGWEDAPETYEQWTRKGQLSDFKIAHRVGMGGFSALRQVREGAEYKYVTTGDKQATIALATYGELFSITRQAIINDDLNMLTDVPMKLGRAAKSTIADLVYAILTSNPKISTDNVSLFDKAKHANVLESAAMDVASLDKARQLMRVQKEGERHLNIRPAFVLVPTAMESVANQVIRSSSVKGADINAGIINPVKDFATVIAEPRLDDNSQTTFYLAASKGSDTIEVAYLNGVDTPYIDQMEGFSVDGVTTKVRIDAGVAPVDHRGLVKCTA | failed |
| MPQRRPLRTMKWLIPGLWLASILFAHFRGRVRLSLSRQMLDHSVLLAPVNAFMVLTSRVPTTPYLTTSEIPELKVLDDNWETIRDEALKMAELRRIKAAERHDDIGFNSFFKYGWKRFYLKWYDARHPSAEELCPKTVAILKSLPKVKAAMFAELPPGGKLNPHRDPFSGSLRYHLGLATPNDDRCYIAVDGESYSWRDGESVVFDETYVHEAHNKSEGNRIILFCDVERPLKWRWAEAFNRWFGRVVMSAASSPNDAGDQTGAINKLTHAHWVIDQKRKQFKAWNRTVYKATKWGLIALVAIGFLAL | failed |
| MPQVETTSVFRADLLKEMESSTGTAPASTGAENLPAGSALLVVKRGPNAGARFLLDQPTTTAGRHPESDIFLDDVTVSRRHAEFRINEGEFEVVDVGSLNGTYVNREPRNAQVMQTGDEIQIGKFRLVFLAGPAELEHHHHHH | not failed |
| MPRGLILATPQLPPDGTPFSARYDDVYHSTEGGLAQAHHVFLGGNGLPGGWQGKRSFTIVETGFGQGLNFLATWAAWRDDPQRCGRLDFVSVEKHPFDRAGLALVHAQEGALASLAEALRQAWPVPVPGVHRLVFDAGRVTLTLMLGDAETLLPQLSCAADAFYLDGFSPAKNPDLWQPGVFKQLARIARGGATLATYTAAGAVRHGLREAGFEVRKAPGFGRKRDMTVAAFPTHWRTRRGPAEAPVWPERHAIVLGAGLAGCSVAERLAARGWRITLIDEHEAPAGGASAHRAAAMHPHVSIDDSVLSRLSRAGNLLARRHWEALDRAGFATGFHPTGVLQLAEHADDAAEQQRIVQALGFPADFIAWLDAARAADRVGAGVPQGGWWFAQAGWVAPPDICRAALAAAGEAVELRWRTRIESLLRHDAGWRACDAQGNVIAHAPVVVLANSLDAVRLAPLASAALKPVRGQLTDVPVAALEDGVPWPRAVVCGDGYLLPRERGAPTVRVGSSFQPGETDPDARTADHAANLRRLAGLQPAHAAALARVDPARLLGYVGVRCVSANRLPLIGAVADEAAIMAPGFRLRGPHAALPRVPGLYAALAYGSRGLTWSVLGAELLAAQIDGGPLPLESELAAALDPGRFLMRALRHGKHAA | failed |
| MPRVIPPENLGCPPFRALTFDSLGLIKVTEARGQERGIPTVVNTWGEMNASRSVLAASIDDRLRNPLLAVARKDGNVEVINPCNGDLHFSYSVFGDDGCSPEDNEISALHLFRKKIDDQTERSCTLLTCTKKGDVSLRSVKFPDAHGNSTDDASPKTWKACGSGEILVGKVDGSENFSLFGGKRVEANIWDLEQCTKIWSAKCPPKNNLGIFTPTWFTSATFLSKDDHRKFVTGTKSHQVRLYDISTQRRPVLSFDFRETAITSIAEDPDGHTIYVGNASADLASFDIRTGKLLGSFLGKCSGSIRSVVRHPQHQVIASCGLDRYLRVYDVKTRQLISAVFLKQHLTGLVFDSGFSGEETAVANTVAEAATEEKMTIMDQEDDETEKAPVKRKKSKKEKRSREIVFEGEDDEENEDEIEKAPVKTKKSKKEKRSREKVSEGEEKDELRSKKTREHKKKTKIVKHNQED | failed |
| MPRYPVRPADHAQSAEGGVTAVDRALTLLTAFRVTDQTLSLSELSERASLVPSTVLRLLASLMHFGFVLRRPDGRYALGPAAARLNRVYAASFNLQDVVLPALQELVGQTRESASFHVRQGAHRLVLYRVSSPQPLSDQSHTGDLLPLDRGTGGHVLMAFSDTPGEFYEALRLRGYMASPVSDRSPELAGISAPVFDAQGMLAGALTLTMPVHRYKDAHIPVLREAAARLSAALGA | failed |
| MPSENPIGKTMKSIDEQSLHNARRLFESGDIDRIEVGTTAGLQQIHRYLFGGLYDFAGQIREDNISKGGFRFANAMYLKEALVKIEQMPERTFEEIIAKYVEMNIAHPFLEGNGRSTRIWLDLVLKKNLKKVVNWQNVSKTLYLQAMERSPVNDLELRFLLKDNLTDDVDNREIIFKGIEQSYYYEGYEKG | not failed |
| MPSFLEISPDKLNRLIGTPGAPRIIDVRTDEDFALDPRLVPGSIRRDHAEVASWADSIDADAVVVVCHRGAKLSHGVAAYLRHAGIEAESLAGGFEAWAAAGPAVPEAKLSRRDAQGRTVWVTRARPKIDRIACPWLIRRFIDPNAVFLFVPAPEVVAVGERFGAAPFDIEDVFWSHRGELCTFDVMVEEFGLASEPLLRLAQIVRAADTARLDLAPEASGLLAASLGLSRMYSDDLEQLEAGMLLYDAFFRWCRDATEETHNWPAPKKRALEHHHHHH | not failed |
| MPSIVKGIIPPVLTPMKSDRSIDFEALERLVEHLIAGGVDGLFALGSSGEVAFLSDEDRATVIREIVRIAAGRVPVYAGVIDMQVNRMLGHIKAAEEAGVD | not failed |
| MPSLNQIFFGPPGTGKTYATVEATLQILDQPFLAKNAGSRSALKARFDELLAAGDVRFVTFHQSFSYEDFVEGLRATTDEQGQIRYEVVSGVFRSLCESVATELSGKYRAFKVGDRYGTGYKVTRATPDVVEIEKPQGKHLPIGMSLLNTLASYVDAGTFTIEELGNGRWDKKVPGSVLDPFLVNGYKNFLPSMVEHMLGKNEEGLFEPAPVQHSDAKVLIIDEINRGNVSRIFGELITLIEPSKRAGADEALEVTLPYSKERFSIPGNIHLIGTMNTADRSLAALDIALRRRFTFIEVPPNPELLDEVEVDGIAIDELLSLMNQRIAALLDRDHCLGHAYFMPLKDEPTLERLEGIFREQILPLLQEYFFEDWQRIQWVLNDQRKAPENSFLIQLSQDLIALFGDTVTVGQSNERWELNLPAFQKIESYLGVIDHNLKVGAPLEAKNVRTDGIDIRQSADGCIDVYRGGQHIKPTKPLLRELASKHGISSTSASGSELNTRSLGRKIIKFLSEQQG | failed |
| MPSLQDLYAAFRRIAPYTHRTPLLTSRLLDGLLGKRLLLKAEHLQKTGSFKARGALSKALALENPKGLLAVSSGNHAQGVAYAAQVLGVKALVVMPEDASPYKKACARAYGAEVVDRGVTAKNREEVARALQEETGYALIHPFDDPLVIAGQGTAGLELLAQAGRMGVFPGAVLAPVGGGGLLAGLATAVKALSPTTLVLGVEPEAADDAKRSLEAGRILRLEAPPRTRADGVRTLSLGERTFPILRERVDGILTVSEEALLEAERLLFTRTKQVVEPTGALPLAAVLEHGARLPQTLALLLSGGNRDFSP | not failed |
| MPSPRLQHSKPPRRLSRAQKHSSGSSNTSTANRRAHLRLCLERLKVLIPLGPDCTRHTTLGLLNKAKAHIKKLEEAERKSQHQLENLEREQRFLKWRLEQLQGPQEMERIRMDSIGSTISSDRSDSEREEIEVDVESTEFSHGEVDNISTTSISDIDDHSSLPSIGSDEGYSSASVKLSFTS | failed |
| MPSSSLDISSALMIISLCALIDILSPGVLTVTAYLLLTQPNQLSSRLFVFLFITQLGYFITGLLLYFGGNSLLKRIEQLSQFDFINWFYILLGAVLVLISFSKPKETAKKRLISFIPKNTTIKGMIILGIIVFLIEFVTALPYFYSIFLMNHQTIETTPAILIIIGYNLVMVLPSLLLLGVNIIFKERLQQFLIKIRSKLNEAPISSLLVATGVIGAVFFNIGLRGILN | failed |
| MPSSSQYRRYQDPHHPSIPTPTTLFSQPSLEILGGGVAEELPELALCCDGTVVEGRSNCRCKARAVLPGGMRVRLSKTLAGILRHHPGRYGVRLTREGWARVSEVVEGLRKAGWSWVEEWHIVGVALHDPKGRYELRNGEIRARYGHSIPVNVEPLPGEPPPILYHGTTEEALPLIMERGIMRGRRLKVHLTSSLEDAVSTGRRHGNLVAVLLVDVECLRRRGLKVERMSKTVYTVDWVPPECIAEVRRESLGRSL | not failed |
